Reference: publication PMC5490264 (Nature Communications, 2017)

B1: Halo-YscQ (natural protein)
chain: MSLLTLPQAKLSELSLRQRLSHYRQNYLWEEGKLELTVSEPPSSLNCILQLQWKGTHFTLYCFGDDLANWLTPDLLGAPFSTLPKELQLALLERQTVFLPKLVCNDIATASLSVTQPLLSLRLSRDNAHISFWLTSAEALFALLPARPNSERIPLPILLSLRWHKVYLTLDEVDSLRLGDVLLAPEGSGPNSPVLAYVGENPWGYFQLQSNKLEFIGMSHESDELNPKPLTDLNQLPVQVSFEVGRQILDWHTLTSLEPGSLIDLTTPVDGEVRLLANGRLLGHGRLVEIQGRLGVRIERLTEVTIS
notes: also called Halo-tagged YscQ; SctQ/YscQ

Tests used:
[1] = molecular target: the molecule itself; assay: affinity purification with mass spectrometry; as a1, but strains lacking YscD (ΔyscD; all soluble components diffuse in the cytosol); amounts normalized to the WT strain; one representative quantitative mass spectrometry experiment
Halo-YscQ = molecular target: B1; assay: as above; conditions: partners not purified

Row | Binder | degree of interaction in the ΔyscD strain relative to the WT strain [1] [%] | degree of interaction in the ΔyscD strain relative to the WT strain (Halo-YscQ) [%]
1 | B1 | ~50 | –
2 | YscL (natural protein, YscL (SctL), negative regulator of the T3SS ATPase, Yersinia enterocolitica; untagged; also called SctL/YscL; negative regulator of the ATPase; source: endogenous, Y. enterocolitica lysate (strain expressing Halo-YscQ)) MSQTCQTGYAYMQPFVQIIPSNLSLACGLRILRAEDYQSSLTTEELISAAKQDAEKILADAQEVYEQQKQLGWQAGMDEARTLQATLIHETQLQCQQFYRHVEQQMSEVVLLAVRKILNDYDQVDMTLQVVREALALVSNQKQVVVRVNPDQAGTIREQIAKVHKDFPEISYLEVTADARLDQGGCILETEVGIIDASIDGQIEALSRAISTTLGQMKVTEEE | – | ~50
3 | YscN (enzyme, YscN (SctN), type III secretion ATPase, Yersinia enterocolitica; also called SctN/YscN; T3SS ATPase; source: endogenous, Y. enterocolitica lysate (pYV virulence plasmid)) MLSLDQIPHHIRHGIVGSRLIQIRGRVTQVTGTLLKAVVPGVRIGELCYLRNPDNSLSLQAEVIGFAQHQALLIPLGEMYGISSNTEVSPTGTMHQVGVGEHLLGQVLDGLGQPFDGGHLPEPAAWYPVYQDAPAPMSRKLITTPLSLGIRVIDGLLTCGEGQRMGIFAAAGGGKSTLLASLIRSAEVDVTVLALIGERGREVREFIESDLGEEGLRKAVLVVATSDRPSMERAKAGFVATSIAEYFRDQGKRVLLLMDSVTRFARAQREIGLAAGEPPTRRGYPPSVFAALPRLMERAGQSSKGSITALYTVLVEGDDMTEPVADETRSILDGHIILSRKLAAANHYPAIDVLRSASRVMNQIVSKEHKTWAGDLRRLLAKYEEVELLLQIGEYQKGQDKEADQAIERIGAIRGWLCQGTHELSHFNETLNLLETLTQ | – | ~20
